Test results: paper PMC11790920 (Nature Communications, 2025)

Target: T1, eukaryotic translation elongation factor 1A (eEF1A), native, full length (S. cerevisiae, UniProt P02994 1-458)
T1 sequence (looked up): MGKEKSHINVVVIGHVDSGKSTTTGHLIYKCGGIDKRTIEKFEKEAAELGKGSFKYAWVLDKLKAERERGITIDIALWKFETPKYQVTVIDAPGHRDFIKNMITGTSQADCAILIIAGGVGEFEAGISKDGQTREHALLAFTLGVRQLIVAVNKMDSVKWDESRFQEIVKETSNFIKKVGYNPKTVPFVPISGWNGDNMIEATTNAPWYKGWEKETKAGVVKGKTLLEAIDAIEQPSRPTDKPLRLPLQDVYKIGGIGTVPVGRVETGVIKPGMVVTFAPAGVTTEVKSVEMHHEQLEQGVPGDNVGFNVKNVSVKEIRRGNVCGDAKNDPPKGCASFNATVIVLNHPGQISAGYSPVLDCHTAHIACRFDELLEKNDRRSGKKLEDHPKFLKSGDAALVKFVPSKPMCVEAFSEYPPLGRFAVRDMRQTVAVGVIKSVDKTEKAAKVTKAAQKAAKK
Experiment: pull-down

binding result: binds
B1: recombinant Ypl225w-3xFLAG (natural protein, S. cerevisiae, UniProt Q08971 1-146, looked up)
chain: MSTFNAETADNLEDIEKQFAVVAVEQAETYWKLLTSVPGSKLRLTKFDDEIYENFMERFPEYKDVERVKKFTEEELKTKEAKERWRKFFTIFEKKIEDYNFGTLLRTDASAEYGQFTTCFVVRLQFYAFEIARNKHGLNDWIVGQK
